Data on 1 molecule can be found in US7893216B2 (The Institute of Basic Medical Sciences of Chinese Academy …, priority 2004, dated 2011).

Series [1] relates to leukemia, liver and lung cancer cells. In words: Tumoricidal activity in vitro (MTS cell viability). The format is cell-based, human. As to the method: (§1) After treatment, MTS reagent (Promega, USA) was then added and reacted for 2-4 hours and the absorbance values (OD value) of each well were read by using an automatic multi-well spectrophotometer, Wellscan MK3 (Thermo Labsystems, Finland) at the wavelength of 492 nm. OD value of no cell wells is considered as “0,” and the survival rate of the cells is equal to ratio of OD value of treated wells to OD value of control wells.

Series [2] concerns Jurkat cells. In words: Western blot of caspase activation and PARP cleavage. Type of series: cell-based, human. As to the method:
After the collected cells were lysed in cell cleavage solution, SDS-PAGE was used, the proteins separated in the gel were subsequently electrotransferred onto a polyvinylidene difluoride (PVDF) membrane. The membrane was then incubated with the indicated primary antibodies (Santa Cruz, USA) and probed with HRP-conjugated secondary antibodies (Beijing Zhongshan Co.). The proteins were visualized by ECL Plus Western Blotting Detection System (Amersham Biosciences, USA).
For orientation: Immunoblotting shows a protein as a band on a membrane.

The subject of series [3] is human primary normal lymphocytes. Briefly: Effect on normal human primary lymphocytes in vitro (MTS). The format is cell-based. As for the experimental part:
as §1

Series [4] in a line: Toxicity study in mice.
Series [5] has as its target T1, recombinant human DR4 extracellular domain protein (Homo sapiens, UniProt O00220).
T1 construct: recombinant human DR4 or DR5 extracellular domain protein expressed in E. coli; made in house; host or cells: E. coli
Briefly: ELISA cross-reactivity of AD5-10 with DR4. Type of series: binding. As to the method: ELISA was used for testing the specific combination of AD5-10 with its anitgen. ELISA plates (Costar, USA) were coated with recombinant human DR4 or DR5 extracellular domain protein expressed in E. coli over night, blocked with 5% nonfat milk at room temperature for two hours. […] The absorbency at 492 nm was measured on a microtiter reader of enzyme-labelled machine, Wellscan MK3 (Thermo Labsystems, Finland).

Series [6] relates to tumor cells such as liver and lung cancer. Briefly: Synergy of tumoricidal activity with TRAIL. Type of series: cell-based. The following applies: combined with TRAIL.
The test system of series [7] is human leukemia, liver and lung cancer cells. In words: Suppression of tumor formation and growth of human tumor cells in nude mice. Type of series: in vivo. The following applies: compared to the control group. As to the method: (§2) The dose was 15 mg/kg, three times administration in total. The mice of negative control group (n=8) were administrated with physical saline. The mice of positive control group (n=5) were administrated with cyclophosphamide (CTX, 60 mg/kg). […] Three weeks later, the mice were sacrificed and the growth of tumor was determined by the weight of the tumor mass.

Series [8] has as its system liver cancer cells SMMC-7721. In words: Tumoricidal activity in vivo, SMMC-7721 cells in nude mice. Further details: species or system nude mice BALB/c. The following applies: SMMC-7721 in nude mice. As for the experimental part: as §2

T1 sequence (O00220 24-239 limits assumed): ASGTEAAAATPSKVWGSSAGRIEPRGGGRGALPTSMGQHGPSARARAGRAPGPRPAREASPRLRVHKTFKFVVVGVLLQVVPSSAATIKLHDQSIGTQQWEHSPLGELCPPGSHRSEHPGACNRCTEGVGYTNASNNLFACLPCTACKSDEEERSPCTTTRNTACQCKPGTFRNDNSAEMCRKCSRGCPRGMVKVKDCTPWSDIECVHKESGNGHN

B1: AD5-10: murine monoclonal antibody against human TRAIL receptor DR5, subtype IgG3κ, VL SEQ ID No. 1, VH SEQ ID No. 2, hybridoma CGMCC 1192 (antibody, V domains shown)
VH: QIQLVQSGPELKKPGETVKISCKASGYTFTDFSMNWVKQAPGKGLKWMGWINTETGEPTYADDFKGRFALSMETSASTAYLQINNLKNEDTATYFCVRIDYWGQGTTLTVSS
VL: DVVMTQTPLSLPVSLGDQASISCRSSQSLVHSNGNTYLHWYLQKPGQSPKLLIYKVSNRFSGVPDRFSGSGSGTDFTLKISRVEAEDLGVYFCFQSTHVPHTFGGGTKLEIKR
modifications: mus musculus
On to B1, for which the “killing of tumor cells” value in series [1] is “kills leukemia, liver and lung cancer cells with dose-dependent manner”. Further, in series [2], the “caspase cascade activation and PARP cleavage” value is “activates caspase cascade and PARP (poly ADP-ribose polymerase) cleavage”. In addition, the “toxicity to normal lymphocytes” value in series [3] is “without toxicity to human primary normal lymphocytes in vitro”. Moreover, the “death and abnormalism in appetite, function, skin and hair” value in series [4] (150 mg/kg, 1 and 2 month's observation) is reported as “does not cause observably death”. For the same molecule, in series [4] (mice, organs such as liver), the “histological analysis of organs” value was “no pathological changes”. The “cross-reaction with death receptor DR4” value in series [5] is recorded as “does not cross-react”. Besides, the “synergy with TRAIL” value in series [6] is recorded as “can synergize the tumoricidal activity with TRAIL”. The inhibition rate result in series [7] is “about 80%”. Besides, in series [8] (early treatment), the tumor formation result was “inhibits the tumor formation”. Also, the tumor growth result in series [8] (late treatment) is “inhibites the tumor growth”.
